Measurements taken from article doi:10.1101/2022.12.06.519310.

Target: WDR5_(WD40), as used in the ITC (human)
Test: ITC

- Kd: 20.2 µM
Binder: ARTKQTARKSTGGKA (modifications not checked) [unmodified H3 tail peptide of the ITC (H3K4unmodQ5unmod)]
